IntAct's records for PubMed 31515488

B1: Nebulette (Homo sapiens), O76041 (parent)
chain: MRVPVFEDIKDETEEEKIGEEENEEDQVFYKPVIEDLSMELARKCTELISDIRYKEEFKKSKDKCTFVTDSPMLNHVKNIGAFISEAKYKGTIKADLSNSLYKRMPATIDSVFAGEVTQLQSEVAYKQKHDAAKGFSDYAHMKEPPEVKHAMEVNKHQSNISYRKDVQDTHTYSAELDRPDIKMATQISKIISNAEYKKGQGIMNKEPAVIGRPDFEHAVEASKLSSQIKYKEKFDNEMKDKKHHYNPLESASFRQNQLAATLASNVKYKKDIQNMHDPVSDLPNLLFLDHVLKASKMLSGREYKKLFEENKGMYHFDADAVEHLHHKGNAVLQSQVKYKEEYEKNKGKPMLEFVETPSYQASKEAQKMQSEKVYKEDFEKEIKGRSSLDLDKTPEFLHVKYITNLLREKEYKKDLENEIKGKGMELNSEVLDIQRAKRASEMASEKEYKKDLESIIKGKGMQAGTDTLEMQHAKKAAEIASEKDYKRDLETEIKGKGMQVSTDTLDVQRAKKASEMASQKQYKKDLENEIKGKGMQVSMDIPDILRAKRTSEIYSQRKYKDEAEKMLSNYSTIADTPEIQRIKTTQQNISAVFYKKEVGAGTAVKDSPEIERVKKNQQNISSVKYKEEIKHATAISDPPELKRVKENQKNISNLQYKEQNYKATPVSMTPEIERVRRNQEQLSAVKYKGELQRGTAISDPPELKRAKENQKNISNVYYRGQLGRATTLSVTPEMERVKKNQENISSVKYTQDHKQMKGRPSLILDTPAMRHVKEAQNHISMVKYHEDFEKTKGRGFTPVVDDPVTERVRKNTQVVSDAAYKGVHPHIVEMDRRPGIIVDLKVWRTDPGSIFDLDPLEDNIQSRSLHMLSEKASHYRRHWSRSHSSSTFGTGLGDDRSEISEIYPSFSCCSEVTRPSDEGAPVLPGAYQQSHSQGYGYMHQTSVSSMRSMQHSPNLRTYRAMYDYSAQDEDEVSFRDGDYIVNVQPIDDGWMYGTVQRTGRTGMLPANYIEFVN
partner: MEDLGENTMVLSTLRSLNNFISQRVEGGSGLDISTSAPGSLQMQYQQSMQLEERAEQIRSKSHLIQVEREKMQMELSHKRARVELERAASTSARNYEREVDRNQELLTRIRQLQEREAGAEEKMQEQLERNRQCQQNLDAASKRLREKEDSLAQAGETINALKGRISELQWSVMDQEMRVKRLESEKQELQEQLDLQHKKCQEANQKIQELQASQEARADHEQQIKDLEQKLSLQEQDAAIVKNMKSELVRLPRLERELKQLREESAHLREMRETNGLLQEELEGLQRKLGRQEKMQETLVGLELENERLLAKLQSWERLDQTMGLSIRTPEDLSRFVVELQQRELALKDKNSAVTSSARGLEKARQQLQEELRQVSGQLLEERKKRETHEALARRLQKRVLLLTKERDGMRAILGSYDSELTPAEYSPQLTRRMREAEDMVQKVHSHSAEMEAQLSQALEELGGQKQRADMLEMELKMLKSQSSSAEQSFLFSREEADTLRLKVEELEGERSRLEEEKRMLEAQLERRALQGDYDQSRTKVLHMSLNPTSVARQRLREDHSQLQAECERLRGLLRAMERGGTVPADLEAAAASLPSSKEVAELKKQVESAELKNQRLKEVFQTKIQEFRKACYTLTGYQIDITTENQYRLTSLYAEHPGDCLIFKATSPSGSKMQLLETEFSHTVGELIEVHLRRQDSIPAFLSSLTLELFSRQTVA
B2: UPF0462 protein C4orf33 (Homo sapiens), Q8N1A6 (parent)
chain: MDFKIEHTWDGFPVKHEPVFIRLNPGDRGVMMDISAPFFRDPPAPLGEPGKPFNELWDYEVVEAFFLNDITEQYLEVELCPHGQHLVLLLSGRRNVWKQELPLSFRMSRGETKWEGKAYLPWSYFPPNVTKFNSFAIHGSKDKRSYEALYPVPQHELQQGQKPDFHCLEYFKSFNFNTLLGEEWKQPESDLWLIEKCDI
partner: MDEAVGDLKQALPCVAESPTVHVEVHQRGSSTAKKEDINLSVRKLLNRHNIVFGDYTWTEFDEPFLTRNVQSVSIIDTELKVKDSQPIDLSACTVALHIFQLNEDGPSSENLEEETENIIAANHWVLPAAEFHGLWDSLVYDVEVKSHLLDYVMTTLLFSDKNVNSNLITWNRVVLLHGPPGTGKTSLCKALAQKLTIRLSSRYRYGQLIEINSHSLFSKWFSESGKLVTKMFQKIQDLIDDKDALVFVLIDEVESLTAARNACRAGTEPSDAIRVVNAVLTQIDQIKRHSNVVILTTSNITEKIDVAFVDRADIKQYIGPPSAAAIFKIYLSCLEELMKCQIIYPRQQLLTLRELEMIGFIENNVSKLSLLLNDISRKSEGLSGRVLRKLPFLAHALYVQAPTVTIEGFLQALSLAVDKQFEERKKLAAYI
B3: KAT8 regulatory NSL complex subunit 1 (Homo sapiens), Q7Z3B3 (parent)
chain: MAAMAPALTDAAAEAHHIRFKLAPPSSTLSPGSAENNGNANILIAANGTKRKAIAAEDPSLDFRNNPTKEDLGKLQPLVASYLCSDVTSVPSKESLKLQGVFSKQTVLKSHPLLSQSYELRAELLGRQPVLEFSLENLRTMNTSGQTALPQAPVNGLAKKLTKSSTHSDHDNSTSLNGGKRALTSSALHGGEMGGSESGDLKGGMTNCTLPHRSLDVEHTTLYSNNSTANKSSVNSMEQPALQGSSRLSPGTDSSSNLGGVKLEGKKSPLSSILFSALDSDTRITALLRRQADIESRARRLQKRLQVVQAKQVERHIQHQLGGFLEKTLSKLPNLESLRPRSQLMLTRKAEAALRKAASETTTSEGLSNFLKSNSISEELERFTASGIANLRCSEQAFDSDVTDSSSGGESDIEEEELTRADPEQRHVPLRRRSEWKWAADRAAIVSRWNWLQAHVSDLEYRIRQQTDIYKQIRANKGLIVLGEVPPPEHTTDLFLPLSSEVKTDHGTDKLIESVSQPLENHGAPIIGHISESLSTKSCGALRPVNGVINTLQPVLADHIPGDSSDAEEQLHKKQRLNLVSSSSDGTCVAARTRPVLSCKKRRLVRPNSIVPLSKKVHRNSTIRPGCDVNPSCALCGSGSINTMPPEIHYEAPLLERLSQLDSCVHPVLAFPDDVPTSLHFQSMLKSQWQNKPFDKIKPPKKLSLKHRAPMPGSLPDSARKDRHKLVSSFLTTAKLSHHQTRPDRTHRQHLDDVGAVPMVERVTAPKAERLLNPPPPVHDPNHSKMRLRDHSSERSEVLKHHTDMSSSSYLAATHHPPHSPLVRQLSTSSDSPAPASSSSQVTASTSQQPVRRRRGESSFDINNIVIPMSVAATTRVEKLQYKEILTPSWREVDLQSLKGSPDEENEEIEDLSDAAFAALHAKCEEMERARWLWTTSVPPQRRGSRSYRSSDGRTTPQLGSANPSTPQPASPDVSSSHSLSEYSHGQSPRSPISPELHSAPLTPVARDTPRHLASEDTRCSTPELGLDEQSVQPWERRTFPLAHSPQAECEDQLDAQERAARCTRRTSGSKTGRETEAAPTSPPIVPLKSRHLVAAATAQRPTHR
partner: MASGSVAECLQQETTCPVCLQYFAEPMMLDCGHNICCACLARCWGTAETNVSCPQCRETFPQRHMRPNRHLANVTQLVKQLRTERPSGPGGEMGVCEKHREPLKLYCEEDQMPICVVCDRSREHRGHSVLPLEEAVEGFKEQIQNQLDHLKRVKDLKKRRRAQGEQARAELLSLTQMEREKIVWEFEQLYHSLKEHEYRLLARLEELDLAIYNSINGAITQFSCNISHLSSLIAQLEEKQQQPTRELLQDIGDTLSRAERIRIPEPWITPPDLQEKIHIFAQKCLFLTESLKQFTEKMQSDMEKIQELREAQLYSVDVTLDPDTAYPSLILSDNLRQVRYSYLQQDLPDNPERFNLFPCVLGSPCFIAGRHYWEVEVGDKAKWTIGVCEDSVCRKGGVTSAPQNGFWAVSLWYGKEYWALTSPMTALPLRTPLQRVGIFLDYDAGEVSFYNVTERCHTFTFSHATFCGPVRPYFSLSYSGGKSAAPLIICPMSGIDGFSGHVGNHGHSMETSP
B4: MAP kinase-activated protein kinase 3 (Homo sapiens), Q16644 (parent)
chain: MDGETAEEQGGPVPPPVAPGGPGLGGAPGGRREPKKYAVTDDYQLSKQVLGLGVNGKVLECFHRRTGQKCALKLLYDSPKARQEVDHHWQASGGPHIVCILDVYENMHHGKRCLLIIMECMEGGELFSRIQERGDQAFTEREAAEIMRDIGTAIQFLHSHNIAHRDVKPENLLYTSKEKDAVLKLTDFGFAKETTQNALQTPCYTPYYVAPEVLGPEKYDKSCDMWSLGVIMYILLCGFPPFYSNTGQAISPGMKRRIRLGQYGFPNPEWSEVSEDAKQLIRLLLKTDPTERLTITQFMNHPWINQSMVVPQTPLHTARVLQEDKDHWDEVKEEMTSALATMRVDYDQVKIKDLKTSNNRLLNKRRKKQAGSSSASQGCNNQ

Variants of: B1
Conditions: with md1l1_human MAD1L1, Q9Y6D9

Row | Variant | effect of a mutation on the interaction
1 | M351V | with no effect
2 | R613Q | with no effect

Variants of: B2
Conditions: with pch2_human TRIP13, Q15645

Row | Variant | effect of a mutation on the interaction
3 | H166R | with no effect

Variants of: B3
Conditions: with tri27_human TRIM27, P14373

Row | Variant | effect of a mutation on the interaction
4 | N225D | with no effect
5 | K104T | with no effect

Variants of: B4
Conditions: with mk14_human MAPK14, Q16539
Sequence of mk14_human MAPK14, Q16539 (Q16539 whole entry): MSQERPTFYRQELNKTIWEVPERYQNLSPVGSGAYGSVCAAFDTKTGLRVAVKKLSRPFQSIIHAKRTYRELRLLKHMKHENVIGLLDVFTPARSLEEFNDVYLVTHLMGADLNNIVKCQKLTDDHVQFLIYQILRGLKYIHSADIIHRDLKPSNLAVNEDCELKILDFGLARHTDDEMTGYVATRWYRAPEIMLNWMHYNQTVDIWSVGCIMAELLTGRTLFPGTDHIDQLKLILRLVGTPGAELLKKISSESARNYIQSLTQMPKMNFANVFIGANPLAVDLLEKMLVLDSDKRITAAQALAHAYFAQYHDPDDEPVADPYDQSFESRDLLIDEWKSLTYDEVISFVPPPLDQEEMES

Row | Variant | effect of a mutation on the interaction
6 | E105A | with no effect
